Experimental data as given in paper PMC3575483.

Biological target: Purified native (non-tagged) D. radiodurans DR1245 protein (D. radiodurans)
Assay: SEC; Sephacryl S-300 16/60 HR gel filtration column of purified native DR1245

stoichiometry N: 2
Substance: Purified native (non-tagged) D. radiodurans DR1245 protein (natural protein)
